The text below walks through data of article PMC4428629, “The Structure of an NDR/LATS Kinase–Mob Complex Reveals a Novel Kinase–Coactivator System and Substrate Docking Mechanism” (PLoS Biology, 2015).

In one assay the test system is Cbk1–Mob2. The assay can be described thus: In vitro pulldown of Cbk1–Mob2. In kind it is binding, Saccharomyces cerevisiae. As for the experimental part:
Cbk1 substrates containing the docking motifs or substrate sites were bacterially expressed as MBP or GST fusions. For pulldown assays, MBP-fusion lysates were incubated with amylose resin (New England Biolabs) on ice for 15 min, followed by washing with PBS (137 mM NaCl, 2.7 mM KCl, 4.3 mM Na2HPO4, 1.4 mM KH2PO4 [pH 7.3]). GST fusions were purified on glutathione Sepharose beads followed by dialysis into Cbk1 buffer.
MBP fusions were incubated on bead with 1 μM purified Cbk1 on ice for 15 min. Samples were washed 3× with PBS (transferred to fresh tube on last wash), resuspended in SDS-PAGE buffer, and separated by SDS-PAGE. Samples were directly visualized with GelCode Blue (Pierce) or transferred to PVDF membrane for immunoblotting. Cbk1 was detected using His or pS570 primary antibodies. For experiments detected using α-pS570, antibody signal with pure protein was analyzed to control for lot-dependent variations in expression as well as variations between Cbk1 mutants (no variations detected).

A further assay has as its target T1, Cbk1^251-756-Mob2 (Saccharomyces cerevisiae, UniProt P43563+P53894).
T1 construct: His6-Cbk1^251–756 was co-expressed with GST-Mob2 (full length or 45–287); His6 (N); made in house
T1 sequence (P53894 251-756): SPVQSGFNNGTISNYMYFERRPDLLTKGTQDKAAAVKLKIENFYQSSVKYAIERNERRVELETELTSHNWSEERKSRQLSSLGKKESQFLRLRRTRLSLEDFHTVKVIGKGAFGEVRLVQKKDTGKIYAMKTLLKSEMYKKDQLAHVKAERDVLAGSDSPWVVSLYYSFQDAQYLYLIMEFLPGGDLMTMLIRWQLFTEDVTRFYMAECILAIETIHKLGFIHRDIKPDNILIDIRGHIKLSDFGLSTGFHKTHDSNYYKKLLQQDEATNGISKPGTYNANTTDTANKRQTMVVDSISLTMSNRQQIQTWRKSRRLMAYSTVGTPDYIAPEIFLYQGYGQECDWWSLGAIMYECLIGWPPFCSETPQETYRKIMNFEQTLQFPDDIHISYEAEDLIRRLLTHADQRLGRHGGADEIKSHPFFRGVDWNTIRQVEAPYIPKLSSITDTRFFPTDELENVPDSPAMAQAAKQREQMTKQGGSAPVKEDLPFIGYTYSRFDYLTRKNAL
T1 sequence (P43563 1-287 partner): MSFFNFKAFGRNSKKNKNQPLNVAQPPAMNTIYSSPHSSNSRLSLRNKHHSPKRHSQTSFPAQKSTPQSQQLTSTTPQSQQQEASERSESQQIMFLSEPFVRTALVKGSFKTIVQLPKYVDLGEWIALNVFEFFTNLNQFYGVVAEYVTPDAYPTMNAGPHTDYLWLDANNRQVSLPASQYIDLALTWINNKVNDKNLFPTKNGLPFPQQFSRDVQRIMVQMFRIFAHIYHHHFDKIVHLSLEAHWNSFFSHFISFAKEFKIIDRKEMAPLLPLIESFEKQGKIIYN
Kind of assay: FP direct titration, Cbk1^251-756-Mob2 (WT). To be noted: CF-labeled peptide 20 nM, Tris pH 8.0, triplicate, read-out: peptide binding affinity (table in Fig 5C). Format: binding. As for the experimental part: His6-Cbk1^251–756 was co-expressed with GST-Mob2 (full length or 45–287). Cbk1 kinase domain alone (352–756 or 352–692) was expressed as GST-Cbk1-His6. All constructs were bacterially expressed and purified on a Ni-NTA resin (Qiagen) followed by glutathione Sepharose beads (GE Biosciences). For crystallization, tags were cleaved with TEV protease followed by cation exchange chromatography on a Resource S column. All Cbk1 preparations were subsequently dialyzed into Cbk1 buffer (20 mM Tris-HCl, 150 mM NaCl, 2 mM DTT [pH 8.0]).
For FP-based binding affinity measurements, different docking peptides (pepAce2: GSGSIIVTTNSANGGYQFP; pepSSD1: TTEQSDFKFP; pepHM: IGYTYSRFDY; pepHM-P: IGYpTYSRFDY) were N-terminally (pepAce2 and pepSSD1) or C-terminally (pepHM and pepHM-P) labeled with carboxyfluorescein (CF) fluorescent dyes.
Change in the FP signal in direct binding affinity measurements was monitored as a function of increasing concentration of protein with a Synergy H4 (BioTek Instruments) plate reader in 384-well plates. The labeled peptides were at 20 nM in 20 mM Tris (pH 8.0), 100 mM NaCl, 0.05% Brij35P, 2 mM DTT. The resulting binding isotherms were fit to a quadratic binding equation. The affinity of the unlabeled peptides was measured in steady-state competition experiments: 20 nM labeled reporter was mixed with protein samples in a concentration to achieve ~60%–80% complex formation. Subsequently, increasing amounts of unlabeled peptide were added, and the FP signal was measured as described earlier for direct titration experiments. The Kd for each unlabeled peptide interaction was determined by fitting the data to a competition binding equation. Titration experiments were carried out in triplicate, and the average FP signal was used for fitting the data with OriginPro 7.

Assay [1] concerns the target T2, Cbk1^251–756–Mob2 complex (S. cerevisiae, UniProt P53894 251-756; P43563 1-287).
T2 chain 1: T1 sequence (P53894 251-756)
T2 chain 2: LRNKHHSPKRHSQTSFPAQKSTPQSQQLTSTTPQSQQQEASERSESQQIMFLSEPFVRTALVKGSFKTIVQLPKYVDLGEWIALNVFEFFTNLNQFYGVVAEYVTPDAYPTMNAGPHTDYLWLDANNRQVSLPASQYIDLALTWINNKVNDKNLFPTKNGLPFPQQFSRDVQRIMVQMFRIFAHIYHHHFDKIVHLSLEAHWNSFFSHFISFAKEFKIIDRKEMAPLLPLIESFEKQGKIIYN
Kind of assay: FP.

The target in a further assay is Cbk1(W444A)–Mob2 complex (S. cerevisiae, UniProt P53894 251-756; P43563 1-287, W444A). The assay can be described thus: FP.
Cbk1(W444A)–Mob2 complex, sequence (P53894 251-756 W444A, chain 1 of 2, one chain of several): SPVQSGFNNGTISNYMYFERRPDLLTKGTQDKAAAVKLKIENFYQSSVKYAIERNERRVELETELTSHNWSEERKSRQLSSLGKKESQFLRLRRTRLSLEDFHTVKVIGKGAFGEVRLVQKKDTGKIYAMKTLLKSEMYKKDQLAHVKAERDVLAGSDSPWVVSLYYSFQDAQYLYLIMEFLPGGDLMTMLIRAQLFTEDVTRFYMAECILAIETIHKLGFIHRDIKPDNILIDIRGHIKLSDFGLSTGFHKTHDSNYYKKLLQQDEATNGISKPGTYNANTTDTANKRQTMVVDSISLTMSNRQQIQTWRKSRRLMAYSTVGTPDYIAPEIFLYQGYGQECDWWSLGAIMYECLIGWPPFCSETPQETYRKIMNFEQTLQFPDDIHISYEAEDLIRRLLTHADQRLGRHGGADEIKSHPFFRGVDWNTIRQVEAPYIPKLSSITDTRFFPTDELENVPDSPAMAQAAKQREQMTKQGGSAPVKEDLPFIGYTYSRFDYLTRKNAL
A further assay deals with Cbk1(F699A)–Mob2 complex (S. cerevisiae, UniProt P53894 251-756; P43563 1-287, F699A). The assay can be described thus: FP.
The test system of assay [2] is budding yeast cell separation (RAM network output). The assay can be described thus: Cell separation assay (cells per group). As to conditions: cbk1-as2 strain. Format: cell-based, Saccharomyces cerevisiae.
Assay [3] has the same test system. The assay can be described thus: Cell separation assay (cells per group). In kind it is cell-based, Saccharomyces cerevisiae. To be noted: cbk1-as2 strain. As to the method:
For cell separation assays, ckb1Δ, ace2ΔCBK1, or ace2Δcbk1-as2 cells were transformed with empty, WT, or mutant vector under control of the ADH1 promoter. Cells were grown to log-phase, briefly sonicated, and mounted on slides to count cell group size. Histograms represent mean ± standard deviation of three independent cultures, with >100 groups counted for each. For quantification of transcriptional output, RNA was isolated from log-phase cultures and analyzed by real-time PCR. Bar graphs represent mean ± standard deviation of three independent cultures. For growth assays, WT CBK1 or cbk1-as2 strains were transformed with vectors containing Ssd1 (WT and mutants) expressed from a galactose-inducible promoter. Stationary phase cells grown in glucose were diluted to OD600 = 0.2. Five-fold serial dilutions (5^−2, 5^−3, 5^−4, 5^−5) were plated in the presence of glucose or galactose, then incubated for 3 d at 24°C.
(§1) Supplementary file pbio.1002146.s001.xlsx: S1 Data Measurements of the distances between the centers of mass of indicated Cbk1 and Mob2 regions over the course of the molecular dynamics simulations described in Figs 3 and S4. This file also contains data quantifying the effectiveness of cell separation in different genetic backgrounds. In these experiments we counted the number of cells present in clumps of specific sizes in random microscope fields, and then binned these groups into clump size ranges: 1–4 cells, 5–10 cells, 11–20 cells, and ≥21 cells per clump. We quantified this for the indicated allele combinations, scoring three independent isolates of each allele combination. The number of cell bodies present in clumps of different sizes is a function of the efficiency of cell separation. (XLSX) Click here for additional data file.
as §1, with “pbio.1002146.s004.xlsx: S4” for “pbio.1002146.s001.xlsx: S1”, “Data” for “Measurements of the distances between the centers of mass of indicated Cbk1 and Mob2 regions over the course of the molecular dynamics simulations described in Figs 3 and S4. This file also contains data”, “1–2 cells, 3–4” for “1–4”
The source holds these as a separate data set.

Residues, ends and D or L forms follow the SMILES beside them. No end group written: not given here. carboxyfluorescein = carboxyfluorescein label

In the case of “Ssd1^208–214: Ssd1 docking fragment used for Cbk1 pulldown (QSDFKFP; UniProt P24276 208-214, looked up, fragment)”, the figures for the Cbk1 pulldown entry in the assay on Cbk1–Mob2 (Cbk1 F699A mutant (Fig 5B)) and with Cbk1–Mob2 (Cbk1 Y687A mutant (Fig 5B)) were “not nearby F699A abrogate Cbk1 pulldown” and “abrogate Cbk1 pulldown”, respectively.
Regarding `C[C@@H](O)[C@H](N)C(=O)N[C@H](C(=O)N[C@@H](CCC(=O)O)C(=O)N[C@@H](CCC(N)=O)C(=O)N[C@@H](CO)C(=O)N[C@@H](CC(=O)O)C(=O)N[C@@H](Cc1ccccc1)C(=O)N[C@@H](CCCCN)C(=O)N[C@@H](Cc1ccccc1)C(=O)N1CCC[C@H]1C(=O)O)[C@@H](C)O` [pepSSD1] (H-TTEQSDFKFP-OH), the Kd at Cbk1^251-756-Mob2 was 6 µM.

B1: pepAce2, carboxyfluorescein-labelled (peptide)
peptide: carboxyfluorescein-GSGSIIVTTNSANGGYQFP
B1: the Kd is 5 µM in assay [1], 19 µM in the assay with Cbk1(W444A)–Mob2 complex and 5 µM with Cbk1(F699A)–Mob2 complex.

B2: Ace2 WT (protein, UniProt P21192 1-770, looked up)
Metallothionein expression …: MDNVVDPWYINPSGFAKDTQDEEYVQHHDNVNPTIPPPDNYILNNENDDGLDNLLGMDYYNIDDLLTQELRDLDIPLVPSPKTGDGSSDKKNIDRTWNLGDENNKVSHYSKKSMSSHKRGLSGTAIFGFLGHNKTLSISSLQQSILNMSKDPQPMELINELGNHNTVKNNNDDFDHIRENDGENSYLSQVLLKQQEELRIALEKQKEVNEKLEKQLRDNQIQQEKLRKVLEEQEEVAQKLVSGATNSNSKPGSPVILKTPAMQNGRMKDNAIIVTTNSANGGYQFPPPTLISPRMSNTSINGSPSRKYHRQRYPNKSPESNGLNLFSSNSGYLRDSELLSFSPQNYNLNLDGLTYNDHNNTSDKNNNDKKNSTGDNIFRLFEKTSPGGLSISPRINGNSLRSPFLVGTDKSRDDRYAAGTFTPRTQLSPIHKKRESVVSTVSTISQLQDDTEPIHMRNTQNPTLRNANALASSSVLPPIPGSSNNTPIKNSLPQKHVFQHTPVKAPPKNGSNLAPLLNAPDLTDHQLEIKTPIRNNSHCEVESYPQVPPVTHDIHKSPTLHSTSPLPDEIIPRTTPMKITKKPTTLPPGTIDQYVKELPDKLFECLYPNCNKVFKRRYNIRSHIQTHLQDRPYSCDFPGCTKAFVRNHDLIRHKISHNAKKYICPCGKRFNREDALMVHRSRMICTGGKKLEHSINKKLTSPKKSLLDSPHDTSPVKETIARDKDGSVLMKMEEQLRDDMRKHGLLDPPPSTAAHEQNSNRTLSNETDAL
Regarding B2, in assay [2] (Isolate 1), the “Cells per group, bin 4 (3-4), %” value was determined as 16.9065%. Besides, in assay [2] (Isolate 1, count), the “Cells per group, bin 2 (1-2), Frequency” value was determined as 213 and the “Cells per group, bin 4 (3-4), Frequency” value was determined as 47. Moreover, the “Cells per group, bin 4 (3-4), Frequency” value in assay [2] (Isolate 2, count) is given as 18. In addition, the “Cells per group, bin 2 (1-2), %” value in assay [2] (Isolate 3) was found to be 97.3684%. For the same molecule, in assay [3] (Isolate 1), the “Cells per group, bin 2 (1-2), %” value was found to be 76.6187%; the “Cells per group, bin 10 (5-10), %” value is given as 5.7554%; the “Cells per group, bin 20 (11-20), %” value is given as 0.7194%; the “Cells per group, bin More (20+), %” value stood at 0%. Further, in assay [3] (Isolate 1, count), the “Cells per group, bin 10 (5-10), Frequency” value is 16; the “Cells per group, bin 20 (11-20), Frequency” value was 2; the “Cells per group, bin More (20+), Frequency” value turned out to be 0. Further, in assay [3] (Isolate 2), the “Cells per group, bin 2 (1-2), %” value amounted to 92.7273%; the “Cells per group, bin 4 (3-4), %” value is 6.545%; the “Cells per group, bin 10 (5-10), %” value is recorded as 0.7273%; the “Cells per group, bin 20 (11-20), %” value worked out at 0%. For the same molecule, the “Cells per group, bin More (20+), %” value in assay [3] (Isolate 2) was 0%. In addition, in assay [3] (Isolate 2, count), the “Cells per group, bin 2 (1-2), Frequency” value is reported as 255; the “Cells per group, bin 10 (5-10), Frequency” value is on record as 2; the “Cells per group, bin 20 (11-20), Frequency” value is on record as 0; the “Cells per group, bin More (20+), Frequency” value is 0. Moreover, in assay [3] (Isolate 3), the “Cells per group, bin 4 (3-4), %” value turned out to be 1.579%; the “Cells per group, bin 10 (5-10), %” value is recorded as 0.5263%; the “Cells per group, bin 20 (11-20), %” value is given as 0.5263%; the “Cells per group, bin More (20+), %” value turned out to be 0%. For the same molecule, in assay [3] (Isolate 3, count), the “Cells per group, bin 2 (1-2), Frequency” value came out at 185; the “Cells per group, bin 4 (3-4), Frequency” value is given as 3; the “Cells per group, bin 10 (5-10), Frequency” value is reported as 1; the “Cells per group, bin 20 (11-20), Frequency” value amounted to 1. Moreover, the “Cells per group, bin More (20+), Frequency” value in assay [3] (Isolate 3, count) worked out at 0. Besides, in assay [3] (mean of 3 isolates), the “Cells per group, 1-2, Mean” value came out at 88.9048%; the “Cells per group, 3-4, Mean” value was 8.344%; the “Cells per group, 5-10, Mean” value stood at 2.336%; the “Cells per group, 11-20, Mean” value was 0.4152%. Also, in assay [3] (mean of 3 isolates), the “Cells per group, 20+, Mean” value is listed as 0%.
